Patent US20010043931A1, “Human respiratory syncytial virus” (Whitehead Institute for Biomedical Research, priority 1999, published 2001)

T1: HRSV-N51 peptide (residues 157-207 of HRSV F0) (human respiratory syncytial virus …)
T1 construct: Made by proteinase K trimming of the HRSV-N57/C45 complex
T1 peptide: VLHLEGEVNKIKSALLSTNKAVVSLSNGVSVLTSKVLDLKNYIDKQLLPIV


Tests used:
[1] = Thermal denaturation followed by circular dichroism (CD) spectroscopy; format: physicochemical; conditions: at 10 μM in PBS
Description: CD spectra were measured at protein concentration 10 μM in PBS buffer using an AVIV 62 DS spectrometer (Aviv Associates, Lakewood, N.J.), as described (Fass, D. & Kim, P. S., Curr. Biol., 5:1377-1383 (1995).

[2] = molecular target: T1, HRSV-N51 peptide (residues 157-207 of …); assay: complex left after proteinase K digestion of HRSV-N57/C45; CD thermal melt

| Molecule | apparent Tm [1] | binding result [2] |
| --- | --- | --- |
| HRSV-C45: C-terminal trypsin fragment of recRSV-1, residues 476-520 of HRSV F0 (SEQ ID NO.: 2) (NFYDPLVFPSDEFDASISQVNEKINQSLAFIRKSDELLHNVNAGK) | does not show a thermal unfolding transition | – |
| HRSV-N57: N-terminal trypsin fragment of recRSV-1, residues 153-209 of HRSV F0 (SEQ ID NO.: 1) (AVSKVLHLEGEVNKIKSALLSTNKAVVSLSNGVSVLTSKVLDLKNYIDKQLLPIVNK) | 40-50 °C | – |
| VFPSDEFDASISQVNEKINQSLAFIRKSDELLHNVNAGK (Made by proteinase K trimming of the HRSV-N57/C45 complex) [HRSV-C39 peptide (residues 482-520 of HRSV F0)] | – | binds |
